This passage reports Km results from article PMC2829124.

Substrate in this data set: CCCCCCCCCCCCCC(=O)SCCNC(=O)CCNC(=O)[C@H](O)C(C)(C)COP(=O)(O)OP(=O)(O)OC[C@H]1O[C@@H](n2cnc3c(N)ncnc32)[C@H](O)[C@@H]1OP(=O)(O)O
In words: purified protein. The note with it: fatty acyl-CoA binding site.

B1: N-Myristoyltransferase (LdNMT) (Leishmania donovani) (protein)
chain: MSRNPSNSDAAHAFWSTQPVPQTEDETEKIVFAGPMDEPKTVADIPEEPYPIASTFEWWTPNMEAADDIHAIYELLRDNYVEDDDSMFRFNYSEEFLQWALCPPSYIPDWHVAVRRKADKKLLAFIAGVPVTLRMGTPKYMKVKAQEKGQEEEAAKYDAPRHICEINFLCVHKQLREKRLAPILIKEVTRRVNRTNVWQAVYTAGVLLPTPYASGQYFHRSLNPEKLVEIRFSGIPAQYQKFQNPMAMLKRNYQLPNAPKNSGLREMKPSDVPQVRRILMNYLDNFDVGPVFSDAEISHYLLPRDGVVFTYVVENDKKVTDFFSFYRIPSTVIGNSNYNILNAAYVHYYAATSMPLHQLILDLLIVAHSRGFDVCNMVEILDNRSFVEQLKFGAGDGHLRYYFYNWAYPKIKPSQVALVML
The Km is the concentration of substrate that gives half-maximal velocity. As to B1, the Km is reported as 17.5 ± 2.9 nM.
